Measured values: paper PMC3089482 (Nucleic Acids Research, 2011)

Target: T1, Archaeoglobus fulgidus PCNA (Archaeoglobus fulgidus, UniProt O29912)
T1 sequence: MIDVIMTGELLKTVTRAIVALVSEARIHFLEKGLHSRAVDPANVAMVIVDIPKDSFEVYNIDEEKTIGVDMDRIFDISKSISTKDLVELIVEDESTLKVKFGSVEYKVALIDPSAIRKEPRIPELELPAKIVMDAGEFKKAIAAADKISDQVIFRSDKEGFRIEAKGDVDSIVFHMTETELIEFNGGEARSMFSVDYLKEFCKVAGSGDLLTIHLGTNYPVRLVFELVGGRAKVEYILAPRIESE
Assay: pull-down

B1: GST-RNase HII hinge deletion mutant (ΔSNLR) (enzyme)
chain: MKAGIDEAGKGCVIGPLVVAGVACSDEDRLRKLGVKDSKKLSQGRREELAEEIRKICRTEVLKVSPENLDERMAAKTINEILKECYAEIILRLKPEIAYVDSPDVIPERLSRELEEITGLRVVAEHKADEKYPLVAAASIIAKVEREREIERLKEKFGDFGSGYASDPRTREVLKEWIASGRIPSCVRMRWKTVQKTLDDF
binding result: binds
